{"source": "paper PMC4523205", "about": "“Human Non-neutralizing HIV-1 Envelope Monoclonal Antibodies Limit the Number of Founder Viruses during SHIV Mucosal Infection in Rhesus Macaques” (PLoS Pathogens, 2015)", "binders": {"B1": {"name": "7B2 IgG1_AAA (antibody, V domains shown)", "VH": "QVQLVQSGGGVFKPGGSLRLSCEASGFTFTEYYMTWVRQAPGKGLEWLAYISKNGEYSKYSPSSNGRFTISRDNAKNSVFLQLDRLSADDTAVYYCARADGLTYFSELLQYIFDLWGQGARVTVSS", "VL": "DIVLAQSPDSLAVSPGERATIHCKSSQTLLYSSNNRHSIAWYQQRPGQPPKLLLYWASMRLSGVPDRFSGSGSGTDFTLTINNLQAEDVAIYYCHQYSSHPPTFGHGTRVELR", "notes": "variable region as in the heavy chain of m1 (PDB 4YDV, heavy chain); as the light chain of m1 (PDB 4YDV, light chain); IgG1 with the Fc changes S298A, E333A, K334A; also called 7B2_AAA; source: CHO cells (Catalent, Somerset, NJ), recombinant; copies: 2 + 2"}}, "target": "T1, Env of SHIV-SF162P3, on virions (SHIV-SF162P3, env from HIV-1 SF162 …, UniProt P19550, strain)", "T1 construct": "HIV-1 SF162-derived envelope glycoprotein (gp120/gp41) of SHIV-SF162P3, as it stands on virus particles; source: virus stock", "experiment": "infectious virus capture assay (plate based); antibody mixed with viral stock, immune complexes held on plates coated with anti-human IgG, captured infectious virus read with indicator cells (RLU)", "conditions": "one partner purified", "data": [{"binder": "B1", "values": [{"measurement": "binding result", "result": "binds"}]}]}
